Residue numbers refer to the chain shown, from its start. Where two headings read alike, the source gives them in different places. Each block holds one binder with its values, some of them ahead of it.
Tests used:
[1] = molecular target: Human CD3 on naive human T cells (human, UniProt P07766 23-207); test: cell-based or functional assay
[2] = molecular target: T1, Human CD3 epsilon-delta (human); test: SPR, recombinant human CD3
T1 construct: Single-chain epsilon-linker-delta with His6; also called huCD3
T1 chain: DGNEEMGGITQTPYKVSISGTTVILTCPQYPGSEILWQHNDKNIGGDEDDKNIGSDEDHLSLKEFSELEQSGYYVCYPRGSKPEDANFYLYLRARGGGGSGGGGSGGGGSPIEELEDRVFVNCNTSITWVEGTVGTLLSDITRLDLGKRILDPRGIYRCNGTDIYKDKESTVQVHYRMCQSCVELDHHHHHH

[3] = molecular target: T2, Human GUCY2C ECD-muIgG2a (human); test: huCD3-huGUCY2C sandwich ELISA (CD3 coated)
T2 construct: also called human GUCY2c ECD-mouse IgG2a Fc fusion protein; huGUCY2c-mIgG2a

[4] = molecular target: T3, Murine GUCY2C-ECD cleaved (mouse, UniProt Q3UWA6 20-433); test: SPR, GUCY2c directly immobilized, 25 C
T3 sequence: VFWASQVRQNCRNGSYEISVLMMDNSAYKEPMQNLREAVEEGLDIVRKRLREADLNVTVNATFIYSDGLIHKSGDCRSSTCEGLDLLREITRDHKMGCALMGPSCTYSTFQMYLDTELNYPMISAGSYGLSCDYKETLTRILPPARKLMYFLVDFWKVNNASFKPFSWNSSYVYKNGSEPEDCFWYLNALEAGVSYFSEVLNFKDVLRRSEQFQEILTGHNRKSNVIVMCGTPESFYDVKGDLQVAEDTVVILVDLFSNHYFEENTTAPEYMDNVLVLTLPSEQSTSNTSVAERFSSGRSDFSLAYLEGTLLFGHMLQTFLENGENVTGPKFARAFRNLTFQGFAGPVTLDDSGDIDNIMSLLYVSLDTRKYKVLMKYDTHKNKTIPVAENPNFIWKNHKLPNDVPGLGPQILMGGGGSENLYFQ

[5] = molecular target: T4, Human GUCY2c on tumor cells (T84, HT55) (human, UniProt P25092 24-1073); test: cell-based or functional assay
[6] = molecular target: T5, Cynomolgus CD3 epsilon-delta (cynomolgus); test: SPR, printed anti-His capture, 25 C (Table 33D)
T5 chain: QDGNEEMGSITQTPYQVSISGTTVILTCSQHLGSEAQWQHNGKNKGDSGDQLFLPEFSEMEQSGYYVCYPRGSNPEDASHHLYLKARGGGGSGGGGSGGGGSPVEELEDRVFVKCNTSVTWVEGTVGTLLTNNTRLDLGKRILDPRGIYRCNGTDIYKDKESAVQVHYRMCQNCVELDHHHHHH

[7] = molecular target: T6, Human GUCY2C full length (SEQ ID NO: 224), recombinant protein (human, UniProt P25092 24-430, limits assumed); test: SPR, GUCY2c directly immobilized, 25 C
T6 construct: also called huGUCY2C; biotinylated human GUCY2c

[8] = molecular target: T1, Human CD3 epsilon-delta; test: SPR, anti-human IgG capture, 25 C
[9] = molecular target: T7, Cynomolgus GUCY2C-ECD Cleaved (cynomolgus, UniProt P25092 24-430 (human entry)); test: SPR, anti-human IgG capture, 25 C
T7 construct: also called CyGUCY2C
T7 chain: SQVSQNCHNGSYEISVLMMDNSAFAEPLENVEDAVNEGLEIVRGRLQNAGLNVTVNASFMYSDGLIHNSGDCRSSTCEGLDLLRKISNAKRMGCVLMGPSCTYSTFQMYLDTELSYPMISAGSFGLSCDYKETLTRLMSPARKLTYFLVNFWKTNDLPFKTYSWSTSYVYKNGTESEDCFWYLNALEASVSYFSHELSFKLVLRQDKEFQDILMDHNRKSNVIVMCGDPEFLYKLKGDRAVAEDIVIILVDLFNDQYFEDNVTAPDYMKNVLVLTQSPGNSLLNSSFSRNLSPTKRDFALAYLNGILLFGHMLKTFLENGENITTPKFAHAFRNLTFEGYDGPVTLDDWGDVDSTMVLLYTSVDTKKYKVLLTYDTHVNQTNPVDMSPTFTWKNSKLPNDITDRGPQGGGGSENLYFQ

[10] = molecular target: T3, Murine GUCY2C-ECD cleaved; test: SPR, anti-human IgG capture, 25 C
[11] = molecular target: T4, Human GUCY2c on tumor cells (T84, HT55); test: cell-based or functional assay; remark: listed apart in the source
[12] = molecular target: T6, Human GUCY2C full length (SEQ ID NO: …); test: SPR, anti-human IgG capture, 25 C

T6 sequence (P25092 24-430 F281L limits assumed): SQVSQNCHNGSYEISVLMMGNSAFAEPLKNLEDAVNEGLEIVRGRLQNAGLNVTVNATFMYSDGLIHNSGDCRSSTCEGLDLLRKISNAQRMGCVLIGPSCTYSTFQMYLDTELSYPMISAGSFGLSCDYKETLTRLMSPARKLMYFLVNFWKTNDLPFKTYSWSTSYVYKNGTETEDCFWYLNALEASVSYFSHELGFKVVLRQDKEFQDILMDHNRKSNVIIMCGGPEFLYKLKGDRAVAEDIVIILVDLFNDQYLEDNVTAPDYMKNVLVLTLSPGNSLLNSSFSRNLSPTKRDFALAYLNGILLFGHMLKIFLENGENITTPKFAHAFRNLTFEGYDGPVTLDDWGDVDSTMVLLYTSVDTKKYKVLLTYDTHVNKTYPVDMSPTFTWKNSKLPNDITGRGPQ
T2 sequence (chain, as listed by the source limits assumed): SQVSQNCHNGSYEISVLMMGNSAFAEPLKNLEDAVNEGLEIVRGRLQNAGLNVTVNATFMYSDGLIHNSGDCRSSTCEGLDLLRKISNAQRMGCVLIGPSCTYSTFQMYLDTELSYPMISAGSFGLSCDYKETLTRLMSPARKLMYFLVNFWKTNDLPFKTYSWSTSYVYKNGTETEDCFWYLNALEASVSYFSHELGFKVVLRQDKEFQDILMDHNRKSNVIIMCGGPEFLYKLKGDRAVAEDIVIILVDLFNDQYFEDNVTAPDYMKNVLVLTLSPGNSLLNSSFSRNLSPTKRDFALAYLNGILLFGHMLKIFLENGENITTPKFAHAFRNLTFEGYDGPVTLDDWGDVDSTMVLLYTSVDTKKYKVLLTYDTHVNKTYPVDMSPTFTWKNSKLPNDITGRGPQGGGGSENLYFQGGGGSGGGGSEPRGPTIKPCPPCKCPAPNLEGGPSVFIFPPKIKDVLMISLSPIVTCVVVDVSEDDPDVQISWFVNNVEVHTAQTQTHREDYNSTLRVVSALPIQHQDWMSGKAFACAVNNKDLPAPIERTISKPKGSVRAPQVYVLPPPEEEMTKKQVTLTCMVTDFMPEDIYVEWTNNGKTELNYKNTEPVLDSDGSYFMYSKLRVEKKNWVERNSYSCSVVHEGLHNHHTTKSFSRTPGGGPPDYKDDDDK
T4 sequence (P25092 24-1073 limits assumed): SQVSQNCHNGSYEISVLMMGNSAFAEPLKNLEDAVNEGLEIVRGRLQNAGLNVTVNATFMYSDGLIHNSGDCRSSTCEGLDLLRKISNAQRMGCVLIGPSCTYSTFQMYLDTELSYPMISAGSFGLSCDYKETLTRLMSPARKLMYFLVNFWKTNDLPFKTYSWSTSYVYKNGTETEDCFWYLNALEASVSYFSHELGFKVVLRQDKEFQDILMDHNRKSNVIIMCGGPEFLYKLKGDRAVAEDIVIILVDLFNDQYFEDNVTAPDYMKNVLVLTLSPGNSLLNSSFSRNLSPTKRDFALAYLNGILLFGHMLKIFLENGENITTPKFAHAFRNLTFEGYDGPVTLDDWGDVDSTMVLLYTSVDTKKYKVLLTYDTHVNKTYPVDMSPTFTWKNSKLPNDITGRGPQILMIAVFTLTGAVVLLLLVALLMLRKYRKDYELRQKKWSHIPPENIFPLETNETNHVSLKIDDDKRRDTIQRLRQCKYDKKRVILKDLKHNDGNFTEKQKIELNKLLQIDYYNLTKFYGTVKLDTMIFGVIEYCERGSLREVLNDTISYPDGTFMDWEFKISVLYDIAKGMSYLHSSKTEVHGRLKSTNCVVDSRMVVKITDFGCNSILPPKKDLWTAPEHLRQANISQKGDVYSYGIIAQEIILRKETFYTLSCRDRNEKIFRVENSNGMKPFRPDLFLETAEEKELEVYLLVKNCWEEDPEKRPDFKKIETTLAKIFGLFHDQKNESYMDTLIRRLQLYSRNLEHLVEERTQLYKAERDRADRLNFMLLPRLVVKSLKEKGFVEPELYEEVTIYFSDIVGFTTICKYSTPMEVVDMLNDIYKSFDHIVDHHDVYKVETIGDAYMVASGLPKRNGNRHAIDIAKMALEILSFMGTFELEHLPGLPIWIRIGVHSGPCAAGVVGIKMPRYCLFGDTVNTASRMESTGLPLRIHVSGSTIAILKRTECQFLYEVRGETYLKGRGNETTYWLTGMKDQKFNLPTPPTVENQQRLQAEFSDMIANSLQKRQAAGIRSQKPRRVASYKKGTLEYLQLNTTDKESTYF

B1: GUCY2C-1679 (bispecific antibody)
chain 1: DIQLTQSPSSLSASVGDRVTITCRASESVDYYGSSLLQWYQQKPGKAPKLLIYAASKLASGVPSRFSGSGSGTDFTLTISSLQPEDFATYYCQQTRKAYTFGQGTKLEIKGGGSGGGGEVQLVESGGGLVQPGGSLRLSCAASGFTFSDYYMTWVRQAPGKGLEWVAFIRNQARGYTSDHNPSVKGRFTISRDNAKNSLYLQMNSLRAEDTAVYYCARDRPSYYVLDYWGQGTTVTVSSGCPPCPAPEAAGAPSVFLFPPKPKDTLMISRTPEVTCVVVDVSHEDPEVKFNWYVDGVEVHNAKTKPREEQYNSTYRVVSVLTVLHQDWLNGKEYKCKVSNKALPAPIEKTISKAKGQPREPQVCTLPPSREEMTKNQVSLWCLVKGFYPSDIAVEWESNGQPENNYKTTPPVLDSDGSFFLYSKLTVDKSRWQQGNVFSCSVMHEALHNHYTQKSLSLSPG
chain 2: DIQMTQSPSSLSASVGDRVTITCTSSQSLFNVRSGKNYLAWYQQKPGKAPKLLIYWASDRESGVPSRFSGSGSGTDFTLTISSLQPEDFATYYCKQSYDLFTFGGGTKVEIKGGGGSGGGGEVQLVESGGGLVQPGGSLRLSCAASGFTFSSYWMHWVRQAPGKGLEWIGEIKPSNELTNVHEKFKDRFTISVDKAKNSAYLQMNSLRAEDTAVYYCTRTITTTEGYWFFDVWGQGTLVTVSSGCPPCPAPEAAGAPSVFLFPPKPKDTLMISRTPEVTCVVVDVSHEDPEVKFNWYVDGVEVHNAKTKPREEQYNSTYRVVSVLTVLHQDWLNGKEYKCKVSNKALPAPIEKTISKAKGQPREPQVYTLPPCREEMTKNQVSLSCAVKGFYPSDIAVEWESNGQPENNYKTTPPVLDSDGSFFLVSKLTVDKSRWQQGNVFSCSVMHEALHNHYTQKSLSLSPG
In vitro Cytotoxicity (nM), T-cell retargeting assay [1]: 0.194 nM
Kd [2]: 72 nM

B2: GUCY2C-0250 (bispecific antibody)
chain 1: B1 chain 1 with S34T, L37M, K57N, L58V, A59E, A98V, Q172R
chain 2: DIQMTQSPSSLSASVGDRVTITCTSSQSLFNVRSRKNYLAWYQQKPGKAPKLLIYWASTRESGVPSRFSGSGSGTDFTLTISSLQPEDFATYYCKQSYDLFTFGGGTKVEIKGGGSGGGGEVQLVESGGGLVQPGGSLRLSCAASGYTFTSYWMHWVRQAPGKGLEWIGEIKPSNGLTNYIEKFKNRFTISVDKAKNSAYLQMNSLRAEDTAVYYCTRTITTTEGYWFFDVWGQGTLVTVSSGCPPCPAPEAAGAPSVFLFPPKPKDTLMISRTPEVTCVVVDVSHEDPEVKFNWYVDGVEVHNAKTKPREEQYNSTYRVVSVLTVLHQDWLNGKEYKCKVSNKALPAPIEKTISKAKGQPREPQVYTLPPCREEMTKNQVSLSCAVKGFYPSDIAVEWESNGQPENNYKTTPPVLDSDGSFFLVSKLTVDKSRWQQGNVFSCSVMHEALHNHYTQKSLSLSPG
EC50 [3]: 76.9 nM

B5: GUCY2C-0240 (bispecific antibody)
chain 1: DIQLTQSPSSLSASVGDRVTITCRASESVDNYGISFMNWFQQKPGKAPKLLIYAASNPGSGVPSRFSGSGSGTDFTLTISSLQPEDFATYYCQQSKEVPYTFGQGTKLEIKGGGSGGGGEVQLVESGGGLVQPGGSLRLSCAASGFTFSDYYMTWVRQAPGKGLEWVAFIRNRARGYTSDHNPSVKGRFTISRDNAKNSLYLQMNSLRAEDTAVYYCARDRPSYYVLDYWGQGTTVTVSSGCPPCPAPEAAGAPSVFLFPPKPKDTLMISRTPEVTCVVVDVSHEDPEVKFNWYVDGVEVHNAKTKPREEQYNSTYRVVSVLTVLHQDWLNGKEYKCKVSNKALPAPIEKTISKAKGQPREPQVCTLPPSREEMTKNQVSLWCLVKGFYPSDIAVEWESNGQPENNYKTTPPVLDSDGSFFLYSKLTVDKSRWQQGNVFSCSVMHEALHNHYTQKSLSLSPG
chain 2: DIVMTQSPDSLAVSLGERATINCKSSQSLFNVRSRKNYLAWYQQKPGQPPKLLISWASTRESGVPDRFSGSGSGTDFTLTISSLQAEDVAVYYCKQSYDLFTFGSGTKLEIKGGGSGGGGEVQLVESGGGLVQPGGSLRLSCAASGYTFTTYWMQWVRQAPGKGLEWIGAIYPGDGMTTYTQKFKDRFTISADKAKNSAYLQMNSLRAEDTAVYYCVRKGMDYWGQGTLVTVSSGCPPCPAPEAAGAPSVFLFPPKPKDTLMISRTPEVTCVVVDVSHEDPEVKFNWYVDGVEVHNAKTKPREEQYNSTYRVVSVLTVLHQDWLNGKEYKCKVSNKALPAPIEKTISKAKGQPREPQVYTLPPCREEMTKNQVSLSCAVKGFYPSDIAVEWESNGQPENNYKTTPPVLDSDGSFFLVSKLTVDKSRWQQGNVFSCSVMHEALHNHYTQKSLSLSPG
Kd [4]: 42.3 nM
koff [4]: 0.00515 s⁻¹
kon [4]: 122000 M⁻¹ s⁻¹
T84 tumor cell EC50 (T cell cytotoxicity, E:T 5:1) [5]: 0.53 nM
Kd [6]: 4.71 nM
koff [6]: 0.00207 s⁻¹
kon [6]: 440000 M⁻¹ s⁻¹
Kd [7]: 37.9 nM
koff [7]: 0.00364 s⁻¹
kon [7]: 96200 M⁻¹ s⁻¹
Kd [8]: 3.73 nM
koff [8]: 0.00129 s⁻¹
kon [8]: 347000 M⁻¹ s⁻¹
Kd [9]: 91.2 nM
koff [9]: 0.00234 s⁻¹
kon [9]: 26100 M⁻¹ s⁻¹
Kd [10]: 317 nM
koff [10]: 0.00336 s⁻¹
kon [10]: 10600 M⁻¹ s⁻¹
T84 tumor cell EC50 (T cell cytotoxicity, E:T 5:1) [11]: 0.53 nM
EC50 [3]: 0.0799 nM
Kd [12]: 37.9 nM
koff [12]: 0.00364 s⁻¹
kon [12]: 96200 M⁻¹ s⁻¹

Second part, led by results:

Kd [2]: 78.6 nM
B3: GUCY2C-1680 (bispecific antibody)
chain 1: B1 chain 1
chain 2: B1 chain 2 with Q27E
In vitro Cytotoxicity (nM), T-cell retargeting assay [1]: 0.385 nM

Kd [2]: 63.5 nM
B4: GUCY2C-1678 (bispecific antibody)
chain 1: B1 chain 1
chain 2: B1 chain 2 with S26D
In vitro Cytotoxicity (nM), T-cell retargeting assay [1]: 0.247 nM

Source: US20230340151A1 (Pfizer, published 2023)
